In patent US20240294670A1 (University of Texas, published 2024):

Experiments:
recombinant mouse CHI3L1 [1] = target: T1, recombinant mouse CHI3L1 (mouse, UniProt Q61362 30-389, limits assumed); test: ELISA: mouse CHI3L1 coated on the plate, B cell culture supernatant 100 ul/well, A450
T1 construct: His-tagged; also called mCHI3L1; mChi3l1
Method: (§1) FIG. 7. The ELISA binding of the supernatant antibody to the human CHI3L1. (hCHI3L1), and mouse CHI3L1 (mCHI3L1). The CHI3L1 protein was coated on maxi-sorp 96-well plates, cell culture supernatant (100 ul/well) was used for binding on the antigen coated plate. Binding signals (A450 nm) are shown in Y-axis and CHI3L1 mAbs are shown on X-axis.
(§2) Binding affinity of anti-CHI3L1 monoclonal antibodies to the CHI3L1 protein using ELISA method. Binding of CHI3L1 by monoclonal antibodies was first screened by ELISA using supernatants collected from the B cell cultures and cross reactivity to mouse CHI3L1 protein was determined (FIG. 7).

recombinant human CHI3L1 = target: T2, recombinant human CHI3L1 (human, UniProt P36222 22-383); test: ELISA: human CHI3L1 coated on the plate, B cell culture supernatant 100 ul/well, A450
T2 construct: His-tagged recombinant protein (Sino Biological 11227-H08H, or in-house HEK293 protein with 6xHIS-tag and avi-tag); also called hCHI3L1; hChi3l1
Method: as §1, §2

recombinant mouse CHI3L1 [2] = target: T1, recombinant mouse CHI3L1; test: BLI (Octet), mAb on protein A sensor, CHI3L1 in solution, 1:1 fit
Method: FIG. 8. Kinetic binding sensorgrams collected on Octet instrument for determination of kon and koff rates for each CHI3L1 antibody.
Binding affinity of anti-CHI3L1 monoclonal antibodies determined using Bio-layer interferometry (BLI), a sensor-based Octet instrument. […] Following by kinetics buffer washing to baseline, the loaded biosensors were exposed to a series of recombinant CHI3L1 protein at 0.1-200 nM range and background subtraction was used to correct for any background from sensor drifting. All experiments were performed with shaking at 1,000 rpm. Background wavelength shifts were measured from reference biosensors that were loaded with antibody and followed with buffer without antigen. ForteBio's data analysis software was used to fit the data to a 1:1 binding model to extract an association rate and dissociation rate. The KD was calculated using the ratio of koff/kon and the estimated values of KD for CHI3L1 mAbs in Table C.

T2 sequence (P36222 22-383 limits assumed): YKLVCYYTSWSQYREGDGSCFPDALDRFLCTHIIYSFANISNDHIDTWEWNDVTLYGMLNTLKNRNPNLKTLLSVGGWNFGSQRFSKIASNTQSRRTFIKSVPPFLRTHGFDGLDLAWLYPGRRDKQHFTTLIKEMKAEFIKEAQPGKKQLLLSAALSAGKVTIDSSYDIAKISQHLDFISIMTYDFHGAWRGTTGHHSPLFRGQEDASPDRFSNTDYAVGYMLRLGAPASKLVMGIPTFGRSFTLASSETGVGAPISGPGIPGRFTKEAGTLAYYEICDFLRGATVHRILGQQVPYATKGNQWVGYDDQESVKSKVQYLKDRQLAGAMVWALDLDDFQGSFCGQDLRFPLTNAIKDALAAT
T1 sequence (Q61362 30-389 limits assumed): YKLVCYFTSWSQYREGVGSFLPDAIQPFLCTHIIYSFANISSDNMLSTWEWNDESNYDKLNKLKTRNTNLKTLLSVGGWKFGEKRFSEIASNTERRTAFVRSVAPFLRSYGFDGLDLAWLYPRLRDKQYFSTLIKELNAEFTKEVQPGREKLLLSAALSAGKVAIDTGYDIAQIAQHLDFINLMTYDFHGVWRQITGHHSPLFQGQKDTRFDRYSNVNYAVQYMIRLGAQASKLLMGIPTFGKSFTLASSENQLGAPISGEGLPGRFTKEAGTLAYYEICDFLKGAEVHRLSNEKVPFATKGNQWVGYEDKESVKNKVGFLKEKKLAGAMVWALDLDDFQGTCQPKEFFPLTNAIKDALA

Binder | binding result (recombinant mouse CHI3L1 [1]) | binding result (recombinant human CHI3L1) | Kd (recombinant mouse CHI3L1 [2]) [nM] | koff (recombinant mouse CHI3L1 [2]) [s⁻¹] | kon (recombinant mouse CHI3L1 [2]) [M⁻¹ s⁻¹]
anti-CHI3L1 monoclonal antibody C21 (antibody, V domains shown, Rabbit mAb) VH: QSVKESGGGLVQPEGSLTLTCTASGFSFSSSYYMCWVRQAPGKGLEWIACIYNGDGSTYYASWAKGRFTISKTSSTTVTLQMTSLTAADTATYFCARDADYAGVVLNLWGPGTLVTVSS VL: AQVLTQTPASVEAAVGGTVTIKCQASESIGNALAWYQQKPGQPPKLLIYVASYLASGVSSRFKGSRSGTEYTLTISDLECVDAATYYCQCTWYGNVYLAFGGGTEVVVK | no binding | binds |  |  | 
anti-CHI3L1 monoclonal antibody C64 (antibody, V domains shown, Rabbit mAb from single B cells, expressed as full length IgG in HEK293) VH: QSVEESGGDLVKPGASLTLTCTASGFSFSNNYWICWIRQAPGKGLEWIACIYAGDTGTAYYANWAKGRFTISKTSSTTVTLQMTSLTAADTATYFCARDGDGVGNGGTFALWGPGTLVTVSS VL: ALVMTQTPASVEAAVGGTVTIRCQASERIGNALAWYQQKPGQPPKLLIYQTSKLTSGVPSRFKGSGSGTEHTLTISDLECADAATYYCQSYYYTGSISYEFGGGTKVVVE |  | no binding | 0.254 | 2.71e-05 | 107000
anti-CHI3L1 monoclonal antibody C68 (antibody, V domains shown, Rabbit mAb from single B cells, expressed as full length IgG in HEK293) VH: QSVEESGGDLVKPGASLTLTCTASGFSFSGPYWISWVRQAPGRGLEWIASIGARSSGSTHYASWAKGRFTISKTASTTVTLQMTSLTAADTATYFCARSYPAYAGDGYALYYFNLWGPGTLVTVSS VL: DVVMTQTPASVSAAVGGTVTIKCQASEDIYSLLAWYQQKPGQPPKFLIYDASDLASGVPSRFSGSGSGTEYTLTINDLKCDDAATYYCQGGYYSGDGTDIPFGGGTELEIL |  | no binding | 0.799 | 0.00011 | 138000
C22 (antibody, V domains shown, also called anti-CHI3L1 monoclonal antibody C22) VH: QLVEESGGGLVKPGAPLTLTCTLSGFSFSSGYYMCWVRQAPGKGLEWIACIYGAVSDRIYFASWAKGRFTMSRPSSTTVTLQMTSLTAADTATYFCARDSYSGSTYYRSYYFNLWGPGTLVTVSS VL: DPVLTQTPASVSAAVGGTVTISCQSNENIYVDKYLSWYQQKPGQPPKGLIYSASTLASGVPSRFRGSGSGTQFTLTISDVQCDDAATYYCAGSFSSSDSCAFGGGTEVVVK | no binding | binds |  |  | 
anti-CHI3L1 monoclonal antibody C25 (antibody, V domains shown, Rabbit mAb) VH: QSVEESGGDLVKPGASLTLTCTASGFSFSSSYYMCWVRQAPGKGLEWIACIYAGSSGSTWYASWAKGRFTISITSSTTVTLQMTSLTAADTATYFCARDRYGGGSYYIPYYFDLWGPGTLVTVSS VL: ALVMTQTPSPVSAAVGGTVTINCQASQNIYVDSYLAWYQQKSGQPPKLLIYYASSLASGVPSRFSGSGSGTQFTLTISDLECDDAATYYCAGGYSADSDNAFGGGTEVVVK | no binding | binds |  |  | 
anti-CHI3L1 monoclonal antibody C65 (antibody, V domains shown, Rabbit mAb from single B cells, expressed as full length IgG in HEK293) VH: QSVEESGGGLVQPEGSLTLTCTASGFSFSSSYYMCWVRQAPGKGLEWIACIFTGGVSTYYASWVNGRFTISKTSSTTVTLQMTSLTAADTATYFCARTYTAGFTGDNYFNLWGPGTLVTVSS VL: AQVLTQTPASVEAAVGGTVTIKCQASQSISSYLAWYQQKPGQPPKLLIYRASTLASGVPSRFKGSGSGTEFTLTISDLECADAATYYCQSDYYSSSSNNGFVFGGGTEVVVK |  |  | 6 | 0.000756 | 126000
anti-CHI3L1 monoclonal antibody C55 (antibody, V domains shown, Rabbit mAb from single B cells, expressed as full length IgG in HEK293; also called clone 55) VH: QSVKESGGDLVKPGASLTLTCTASGFSFSSDYDIYWVRQAPGKGLEWIAWIDGGSSGEIYANWAKGRFTISKTSSTTVTLQMTSLTAADTAAYFCARCIWSHNYYDLWGPGTLVTVSS VL: AIKMTQTPSSVSAAVGGTVTINCQASEDIENYLAWYQQKPGQPPKLLIYRASTLASGVSSRFKGSGSGTEFTLTISDLECADAATYWCQQGYSGSNVDNFFGGGTKVVVE |  |  | 1.22 | 0.000141 | 115000
anti-CHI3L1 monoclonal antibody C15 (antibody, V domains shown, Rabbit mAb) VH: QSVKESGGGLVQPEGSLTLTCTASGFDFSSNAMCWVRQAPGKGPEWIACIYNGDASTYYASWAKGRSTISKTSSTTVTLQMTSLTAADTATYFCARCFNRFYRGDLWGPGTLVTVSS VL: DPMLTQTPSSVSAAVGGTVSISCQSSQSVYDNDWLSWYQQKPGQPPKLLIYDASKLASGVPSRFKGSGSGTQFTLTISDVQCDAAATYYCAGDYINTIDNAFGGGTEVVVK | binds | binds |  |  | 
anti-CHI3L1 monoclonal antibody C30 (antibody, V domains shown, Rabbit mAb) VH: QEQLVESGGGLVTPGGTLTLTCTASGFDFSSYYYMCWVRQAPGKGLELIAAIDTGSGETYYASWANGRFTISKTSSTTVTLQMTSLTAADTATYFCARDPYFGTNLWGPGTLVTVSS VL: DPMLTQTPSPVSAAVGGTVTITCQASQSVYNNNYLSWFQQKPGQPPKLLIYKASILASGVPSRFKGSGSGTQFTLTISDLQCDDAATYYCLGGYSSPSDDAFGGGTKVVVE |  | binds |  |  | 

Next, values leading:

binding result (recombinant mouse CHI3L1 [1]) | binding result (recombinant human CHI3L1) | Kd (recombinant mouse CHI3L1 [2]) [nM] | koff (recombinant mouse CHI3L1 [2]) [s⁻¹] | kon (recombinant mouse CHI3L1 [2]) [M⁻¹ s⁻¹] | Binder
no binding | binds |  |  |  | anti-CHI3L1 monoclonal antibody C27 (antibody, V domains shown, Rabbit mAb) VH: QSVEESGGGLVKPEGSLTLTCTASGFSFSYRYYMCWVRQAPGKGLEWIGCIDNGDGDTYYASWVNGRFTISKASSTTVTLQMTSLTAADTATYFCARGSSGYNGFNFWGPGTLVTVSS VL: ALVMTQTPASVSAAVAGTVTIKCQASQSIGSYLAWYQQKPGQPPKLLIYATSILASGVSSRLKGSRSGTEYTLTISDLECADAATYYCQCGYYDSNYGGAFGGGTEVVVK
no binding | binds |  |  |  | anti-CHI3L1 monoclonal antibody C23 (antibody, V domains shown, Rabbit mAb) VH: QSVKESGGGLVQPGGSLTLSCKASGFDFSSYYMSWVRQAPGKGLEWIGIIYGGKGTTDYASWVNGRFTISSDNAQNTVDLQMNSLTAADTATYFCARDYVSSSGYYMDLWGPGTLVTVSS VL: ALVMTQTPASVSAAVGGTVTIKCQASEDIYSLLAWYQQKPGQPPKLLIYDASDLASGVPSRFSGSGSGTEYTLTISDLECDDAATYYCQGGYYSGSPTDNSFGGGTKVVVE
no binding | binds |  |  |  | anti-CHI3L1 monoclonal antibody C17 (antibody, V domains shown, Rabbit mAb) VH: QSVKESGGDLVKPGASLTLTCTASGFSFSSSYWICWVRQAPGKGLEWIACIDAGSSESTYYASWAKGRFTISKTSSTTVTLQMTSLTAADTATYFCARDSRVVAGVGMYLNLWGPGTLVTVSS VL: AIKMTQTPASVEVAVGGTVTIKCQASQSIGIYLAWYQQKPGQPPKLLIYDASDLASGVPSRFRGSGSGTQFTLTISGVECADAATYYCQQGDTIYNVDNTFGGGTKVVVE
no binding | binds |  |  |  | anti-CHI3L1 monoclonal antibody C18 (antibody, V domains shown, Rabbit mAb) VH: KQLVEESGGDLVRPEGSLTLTCKGSGFDFSRNAMCWVRQAPGKGLEWIACIYVGSGGGTYYATWAKGRFTISKTSSTTVTLQMTSLTAADTATYFCAGSPYSGYGYFNLWGPGTLVTVSS VL: DPMLTQTPASVSEPVGGTVTIKCQASQSISTALAWYQQKPGQPPKLLIYRASILASGVPSRFKGSGSGTEFTLTISDLECADAATYYCQSYYDSSAGNTFGGGTKVEIK
 | no binding | 2.81 | 0.000201 | 71500 | anti-CHI3L1 monoclonal antibody C61 (antibody, V domains shown, Rabbit mAb from single B cells, expressed as full length IgG in HEK293) VH: QEQLEESGGDLVKPEGSLTLTCTASGFSFSSSYWICWVRQAPGKGLEWIACIYAGGSGSTYYASWAKGRFTISKTSSTTVTLQMTSLTAADAATYFCARDGVSGSGWFFNLWGPGTLVTVSS VL: DVVMTQTPASVSEPVGGTVTIKCQASQSISSYLTWYQQKPGQPPKLLIYKASTLASGVSSRFKGSGSGTEFTLTISDLECADAATYYCQSSYYGPSDVDFSPFGGGTEVEIK
no binding | binds |  |  |  | anti-CHI3L1 monoclonal antibody C19 (antibody, V domains shown, Rabbit mAb) VH: QEQLVEYGGDLVQPEGSLTLTCTASGFTISSTFYMGWVRQAPGKGLEWIGDMHVGSATTTYYASWAKGRFTISKPSSTTVTLQMTSLTAADTATYFCARYVNSGYYMDSWGPGTLVTVSS VL: AQVLTQTPASVEVAVGGTVTIKCQASQTISNLLAWYQQKPGQPPKLLIYDASTLAYGVSSRFSGSGSGTQFTLTISGVQCADAATYYCQQGWSSSNVDNVFGGGTKLEIK
 | no binding | 4.09 | 0.000223 | 54500 | anti-CHI3L1 monoclonal antibody C57 (antibody, V domains shown, Rabbit mAb from single B cells, expressed as full length IgG in HEK293) VH: QSVEESGGGLVQPGGSLTLTCKASGFSFSSGYWMCWVRQAPGKGLEWIACIGASYGGTFYASWAKGRFTISKTSSTTVTLQMTSLTAADTATYFCTRDDGGLDNPNLWGPGTLVTVSS VL: DPVLTQTPASVEAAVGGTVTIKCQASQSIGSILAWYQQKPGQPPHLLIYAAAKLASGVPSRFKGSGSGTQFTLTISGVECDDAATYYCQSYYYSVTTSYSNSFGGGTEVVVK
